Biological target: the molecule itself
Assay: self-rotation function of X-ray crystallographic data; crystals grown at low pH (0.1 M sodium citrate pH 3.5, 50 mM magnesium sulphate, 50 mM cobalt chloride, 0.1 M NaCl, 13% PEG 4000, 0.9% beta-octylmaltoside); data to 9.0 A, spacegroup P2(1); structure not phased; POLARRFN self-rotation function, data to 12 A

B1: Methanocaldococcus jannaschii CorA channel (natural protein)
chain: MITVIAIAKDGSIVEPKLDEISFEDYRLIWIDCYDPKDEELYKLSKKIGISVSDLQIGLDEQEIPRVEEDEDFYLIIYKAPLFEEDITTTSLGIYIKNNLLLTIHSDKIKAIGRLHKLISTKKPRIVFERGIGFLLYHILNEITRSYSRILMNLEDELEELEDKLLAGYDREVMEKILGLRKTLVYFHKSLIANRDVLVLLKRKYLPITTKEDRENFEDLYYDTLQLIDMSATYREVLTSMMDITLSLENIKMNQIMKILTMVTTIFAVPMWITGIYGMNFSYLPLANNPQGFWLVMALMVVIIMIFVYIFRRSGWI
notes: CorA magnesium channel of Methanocaldococcus jannaschii (MjCorA); holds the N-terminal, conical and trans-membrane domains; also called MjCorA; source: final buffer 200 mM NaCl, 20 mM Tris/HCl pH8, 0.04% DDM
In the case of B1, the “stoichiometry N” value is reported as 5.

— PMC4579555, “The Cryo-EM structure of the CorA channel from Methanocaldococcus jannaschii in low magnesium conditions” (Biochimica et Biophysica Acta, 2015)
